Experimental findings from publication PMC4153549 are described below.

The test system of this series is Grsf1-GST. The series is described as follows: EMSA. The following applies: 10 mM HEPES-NaOH pH 7.9, 25 mM KCl, 1.5 mM EDTA, 4% glycerol, 0.25 mM DTT, 7.5 ug/uL heparin, 25 ng/uL yeast tRNA, 20 min at 30 C; native 5% PAGE. Background: In EMSA bound probe runs differently from free probe, usually more slowly.

What is called Kd is a measure of binding affinity in units of concentration. High values mean weaker binding, low ones tighter binding. With Use1 5'UTR WT A(G)4A probe, the Kd came out at 527 nM. That is a sub-micromolar value.

As for “Use1 dG4 probe (GGGG deleted from A(G)4A)”, the dissociation constant Kd came to 4400 nM.
